According to paper PMC8034616:
Numbering of substitutions follows the chain as printed.

What was measured:
[1] = system: T1, H-NS A2 S2A (Shewanella oneidensis MR-1), ORF:b65510ad; assay: EMSA
T1 sequence: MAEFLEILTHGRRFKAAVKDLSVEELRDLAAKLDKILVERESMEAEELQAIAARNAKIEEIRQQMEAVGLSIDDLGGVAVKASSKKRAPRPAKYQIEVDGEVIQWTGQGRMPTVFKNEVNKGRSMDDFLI

[2] = system: T2, H-NS A42 S42A (Shewanella oneidensis MR-1), ORF:b65510ad; assay: EMSA
T2 sequence: T1 sequence with A2S, S42A

[3] = system: T3, H-NS A71 S71A (Shewanella oneidensis MR-1), ORF:b65510ad; assay: EMSA
T3 sequence: T1 sequence with A2S, S71A

[4] = system: T1, H-NS A2 S2A (Shewanella oneidensis MR-1), ORF:b65510ad; assay: analytical ultracentrifugation
[5] = system: T2, H-NS A42 S42A (Shewanella oneidensis MR-1), ORF:b65510ad; assay: analytical ultracentrifugation
[6] = system: T3, H-NS A71 S71A (Shewanella oneidensis MR-1), ORF:b65510ad; assay: analytical ultracentrifugation

Measured: binding

GATTTTCTAGTGACAGAAGGTTTTAGCGTTGATAATGCCAAATATGCTGAATTATTTTTGAGACCGAGTAAATTTCTTAGGGGACCAAAAAAACGCATATAATACAATGGATAATGCAATTTAGGTGAGCAAAGGGGACCGTTTTTACCCCGTTTATTCATGCTTCATAACCATCTAATCTCAGGGTTGTAGACGTTTATTCACAACTCTGAGGACGATTATGAACACAACTCTCAC (double strand) [alpA promoter (PalpA)]
binds: [1] | [2] | [3] | [4] | [5] | [6]
